We go through three proteins from patent US20250134889.

Substitutions are numbered along the chain they refer to. Names and notes keep the numbering of the source.

The data set has as its target purified, recombinant human FMRP protein.

B1: purified, recombinant human IRE1-kinase/RNase domains (amino acids 468-977) (protein)
chain: MHQQQQLQHQQFQKELEKIQLLQQQQQQLPFHPPGDTAQDGELLDTSGPYSESSGTSSPSTSPRASNHSLCSGSSASKAGSSPSLEQDDGDEETSVVIVGKISFCPKDVLGHGAEGTIVYRGMFDNRDVAVKRILPECFSFADREVQLLRESDEHPNVIRYFCTEKDRQFQYIAIELCAATLQEYVEQKDFAHLGLEPITLLQQTTSGLAHLHSLNIVHRDLKPHNILISMPNAHGKIKAMISDFGLCKKLAVGRHSFSRRSGVPGTEGWIAPEMLSEDCKENPTYTVDIFSAGCVFYYVISEGSHPFGKSLQRQANILLGACSLDCLHPEKHEDVIARELIEKMIAMDPQKRPSAKHVLKHPFFWSLEKQLQFFQDVSDRIEKESLDGPIVKQLERGGRAVVKMDWRENITVPLQTDLRKFRTYKGGSVRDLLRAMRNKKHHYRELPAEVRETLGSLPDDFVCYFTSRFPHLLAHTYRAMELCSHERLFQPYYFHEPPEPQPPVTPDAL
Turning to B1, the “IRE1-induced phosphorylation sites on FMRP (LC-MS/MS)” value was “eight IRE1-induced phosphorylation sites on FMRP at serine (S362, S494, S497, S500, S504) and threonine (T502, T592, T594)”; the “phosphorylation in an in vitro kinase reaction of purified proteins (western blot for ThioP; LC-MS/MS)” value was “Both IRE1 and FMRP were phosphorylated in this reaction in an AMG-18-sensitive manner”.

B2: inositol-requiring enzyme-1 (IRE1), wild type, expressed from plasmid in HEK293T cells (protein)
chain: IFGSTSTVTLPETLLFVSTLDGSLHAVSKRTGSIKWTLKEDPVLQVPTHVEEPAFLPDPNDGSLYTLGSKNNEGLTKLPFTIPELVQASPCRSSDGILYMGKKQDIWYVIDLLTGEKQQTLSSAFADSLCPSTSLLYLGRTEYTITMYDTKTRELRWNATYFDYAASLPEDDVDYKMSHFVSNGDGLVVTVDSESGDVLWIQNYASPVVAFYVWQREGLRKVMHINVAVETLRYLTFMSGEVGRITKWKYPFPKETEAKSKLTPTLYVGKYSTSLYASPSMVHEGVAVVPRGSTLPLLEGPQTDGVTIGDKGECVITPSTDVKFDPGLKSKNKLNYLRNYWLLIGHHETPLSASTKMLERFPNNLPKHRENVIPADSEKKSFEEVINLVDQTSENAPTTVSRDVEEKPAHAPARPEAPVDSMLKDMATIILSTFLLIGWVAFIITYPLSMHQQQQLQHQQFQKELEKIQLLQQQQQQLPFHPPGDTAQDGELLDTSGPYSESSGTSSPSTSPRASNHSLCSGSSASKAGSSPSLEQDDGDEETSVVIVGKISFCPKDVLGHGAEGTIVYRGMFDNRDVAVKRILPECFSFADREVQLLRESDEHPNVIRYFCTEKDRQFQYIAIELCAATLQEYVEQKDFAHLGLEPITLLQQTTSGLAHLHSLNIVHRDLKPHNILISMPNAHGKIKAMISDFGLCKKLAVGRHSFSRRSGVPGTEGWIAPEMLSEDCKENPTYTVDIFSAGCVFYYVISEGSHPFGKSLQRQANILLGACSLDCLHPEKHEDVIARELIEKMIAMDPQKRPSAKHVLKHPFFWSLEKQLQFFQDVSDRIEKESLDGPIVKQLERGGRAVVKMDWRENITVPLQTDLRKFRTYKGGSVRDLLRAMRNKKHHYRELPAEVRETLGSLPDDFVCYFTSRFPHLLAHTYRAMELCSHERLFQPYYFHEPPEPQPPVTPDAL
Consider B2, for which the “thio-phosphorylation in an in vitro kinase reaction (ATP-γ-S; western blot with anti-thiophosphate ester antibody)” value is given as “In the reaction containing IRE1-WT, both proteins were thio-phosphorylated”.

B3: kinase dead (KD) mutant IRE1 (K599A), expressed from plasmid in HEK293T cells (protein)
chain: B2 chain with K581A
Take B3: the “thio-phosphorylation in an in vitro kinase reaction (ATP-γ-S; western blot with anti-thiophosphate ester antibody)” value is “but not in the reaction containing the IRE1-KD mutant”.
